The values that follow come from publication PMC10777347, “De Novo Single-Stranded RNA-Binding Peptides Discovered by Codon-Restricted mRNA Display” (Biomacromolecules, 2023).

For series [1], the system named is CP2 (synthetic (de novo)). The experiment in a line: spectral shift. To be noted: Spectral shift: 10 mM Tris-HCl pH 8.0, 0.05% Tween 20, no added salt, 25 C, Cy5 oligo (20 nM stock), 30 min at RT; MST with oncogenic RNAs in human plasma-like ….
Series [2] deals with CP1 (synthetic (de novo)). The experiment in a line: spectral shift. To be noted: Spectral shift: 10 mM Tris-HCl pH 8.0, 0.05% Tween 20, no added salt, 25 C, Cy5 oligo (20 nM stock), 30 min at RT; MST with oncogenic RNAs in human plasma-like ….
The subject of series [3] is AP2 QNQ to TNH (synthetic (de novo)). The experiment in a line: spectral shift. The note with it: Spectral shift: 10 mM Tris-HCl pH 8.0, 0.05% Tween 20, no added salt, 25 C, Cy5 oligo (20 nM stock), 30 min at RT; MST with oncogenic RNAs in human plasma-like ….
Series [4] concerns CP1 (synthetic (de novo)). The series can be described thus: MST. To be noted: Spectral shift: 10 mM Tris-HCl pH 8.0, 0.05% Tween 20, no added salt, 25 C, Cy5 oligo (20 nM stock), 30 min at RT; MST with oncogenic RNAs in human plasma-like ….
In series [5] the test system is AP2 (synthetic (de novo)). The series can be described thus: spectral shift. To be noted: Spectral shift: 10 mM Tris-HCl pH 8.0, 0.05% Tween 20, no added salt, 25 C, Cy5 oligo (20 nM stock), 30 min at RT; MST with oncogenic RNAs in human plasma-like ….
Series [6] concerns AP2-short (synthetic (de novo)). The experiment in a line: spectral shift. The note with it: Spectral shift: 10 mM Tris-HCl pH 8.0, 0.05% Tween 20, no added salt, 25 C, Cy5 oligo (20 nM stock), 30 min at RT; MST with oncogenic RNAs in human plasma-like ….
The test system of series [7] is AP2-short Q to S (synthetic (de novo)). The experiment in a line: spectral shift. To be noted: Spectral shift: 10 mM Tris-HCl pH 8.0, 0.05% Tween 20, no added salt, 25 C, Cy5 oligo (20 nM stock), 30 min at RT; MST with oncogenic RNAs in human plasma-like ….
The target of another series is MYU lncRNA. To be noted: fluorescence anisotropy binding assay, previous study; read-out: KD^hnRNPK, MYU lncRNA; cited from earlier work. Here is the method: Figure 7 Assessment of the affinity of poly(C) RNA-binding peptides to cytosine-rich oncogenic RNA motifs. […] The KD^CP1s were measured using microscale thermophoresis in a human plasma-like medium. Cytosines predicted to be single-stranded within RNA ligands are highlighted in red. Cytosine-to-adenine substitution is highlighted in blue. The predicted secondary structures are available in Figure S11. The complete thermodynamic plots are shown in Figure S12. *The KD^hnRNPKs are the dissociation ...

For another series, the target named is Cdk6 3′UTR RNA. To be noted: fluorescence anisotropy binding assay, previous study; read-out: KD^hnRNPK, Cdk6 3′UTR RNA; cited from earlier work. Here is the method:
To evaluate the synthetic ssRNA-binding peptide’s affinity for biologically derived RNA targets, we have chosen two cytosine-rich RNA motifs from the oncogenic Cdk6 3′UTR RNA and MYU lncRNA. These motifs have previously been identified as targets of hnRNPK,[45] and they both consist of extended cytosine repeats (>4 nt) within a necessary single-stranded region for the progression of colon cancer cells. […] The KD^CP1s were measured using microscale thermophoresis in a human plasma-like medium. Cytosines predicted to be single-stranded within RNA ligands are highlighted in red. Cytosine-to-adenine substitution is highlighted in blue. The predicted secondary structures are available in Figure S11. The complete thermodynamic plots are shown in Figure S12. *The KD^hnRNPKs are the dissociation ...
(In fluorescence polarisation assays a small probe gives low polarisation when free and higher when bound to something large.)

A further series concerns the target hnRNPK (UniProt P61978). The experiment in a line: fluorescence anisotropy. To be noted: Spectral shift: 10 mM Tris-HCl pH 8.0, 0.05% Tween 20, no added salt, 25 C, Cy5 oligo (20 nM stock), 30 min at RT; MST with oncogenic RNAs in human plasma-like …; cited from earlier work.

Usually Kd stands for the constant that tells how readily two partners part at equilibrium. In the case of CCCCCCCCCCCC [poly(C) RNA], the Kd was 1200 nM in series [1], 900 nM in [2] and 120000 nM in [3].
As for “GGCUCCCCCGACCUCUGUGCUCCCCUCCCCCGACCUCUGUGC [MYU lncRNA motif]”, the Kd in [4] amounted to 107 nM.
Consider poly(C) RNA / antisense DNA hybrid, for which, in series [2], the binding signal (fold weaker than poly(C) RNA) worked out at 6.
Take AAAAAAAAAAAA [poly(A) RNA]: the figures for the Kd in series [5], in series [6] and in [7] were 18800 nM, 82000 nM and 115000 nM, respectively. The binding signal (fold weaker than poly(C) RNA) in series [2] stood at 4.
Consider AAAAAAAAAAAA [poly(A) DNA], for which the binding signal (fold weaker than poly(A) RNA) in series [5] was determined as 2.
“hnRNPK: endogenous RNA-binding protein with KH domain, binds cytosine-rich RNA motifs”: the Kd was 70 ± 7 nM at MYU lncRNA and 450 nM at Cdk6 3′UTR RNA.
Regarding “GGUCCCCCGCCUCAUUCGCCCCUCUGCUCCC [Cdk6 3'UTR RNA motif]”, the Kd in [4] is 103 nM; with hnRNPK, 450 nM.
Regarding CCCCCCCCCCCC [poly(C) DNA], in series [2], the binding signal (fold weaker than poly(C) RNA) worked out at 7.
